These results are taken from paper PMC7997955, “Bora phosphorylation substitutes in trans for T-loop phosphorylation in Aurora A to promote mitotic entry” (Nature Communications, 2021).

Changes are numbered by the printed parent chain. Numbers in names are those of the source.

What all share (details): both partners purified
In experiment [1] the target is T1, Full-length human AURKA^T288V (human, UniProt O14965 1-403, T288V, not phosphorylated: 0P by intact mass (Supplementary Fig. S3a)).
T1 construct: non-native residues left at the N-terminus after TEV digestion; Aurora A kinase (AURKA), human, full length, T-loop mutant T288V; source: E. coli BL21 DE3 pLysS RIL, purified (glutathione sepharose, TEV cleavage, HiTrap SP, Superdex 200); not shown: 6xHis, N-terminal, cleaved; GST, N-terminal, cleaved
T1 sequence: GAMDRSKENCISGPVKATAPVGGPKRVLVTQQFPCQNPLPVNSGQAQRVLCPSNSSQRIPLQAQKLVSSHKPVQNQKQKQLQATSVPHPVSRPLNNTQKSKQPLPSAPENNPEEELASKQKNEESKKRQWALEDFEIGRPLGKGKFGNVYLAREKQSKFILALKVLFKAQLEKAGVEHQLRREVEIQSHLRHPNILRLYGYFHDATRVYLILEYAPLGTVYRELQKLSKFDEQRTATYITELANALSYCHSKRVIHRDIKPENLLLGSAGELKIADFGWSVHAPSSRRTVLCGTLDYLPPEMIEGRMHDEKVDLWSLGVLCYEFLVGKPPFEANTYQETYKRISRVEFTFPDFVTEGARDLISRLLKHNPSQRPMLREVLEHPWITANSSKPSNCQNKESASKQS
Put plainly: fluorescence polarisation; competitive displacement: FITC-Tpx2^1–43 (5 nM) and AURKA (35 nM) kept constant, unlabeled competitor varied; 25 mM HEPES pH 7.5, 50 mM NaCl, 10 mM MgCl2, 0.1 mg/mL BSA, 0.01% Brij, 3 mM ADP, 2 mM DTT. (In fluorescence polarisation assays a small probe gives low polarisation when free and higher when bound to something large.)

Experiment [2] deals with T2, fluorescein-labeled Tpx2^1–43 polypeptide (UniProt Q9ULW0 1-43, fluorescein (FITC) label, position not stated).
T2 construct: Tpx2 (Targeting Protein for Xenopus kinesin-like protein 2), first 43 residues; also called FITC-Tpx2^1–43; source: synthetic peptide (Proteogenix)
T2 peptide (looked up): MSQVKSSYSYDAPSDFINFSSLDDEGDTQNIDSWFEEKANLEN
The experiment can be described thus: fluorescence polarisation; direct binding: 5 nM FITC-Tpx2^1–43 with increasing AURKA; 25 mM HEPES pH 7.5, 50 mM NaCl, 10 mM MgCl2, 0.1 mg/mL BSA, 0.01% Brij, 3 mM ADP, 2 mM DTT.

The target in experiment [3] is T3, Full-length human AURKA^WT (Aurora A kinase) (human, UniProt O14965 1-403, phosphothreonine at T288 (T-loop; 'WT phosphorylated')).
T3 construct: non-native residues left at the N-terminus after TEV digestion of the 6xHis-GST fusion; Aurora A kinase (AURKA), human, full length; also called AURA^WT; WT phosphorylated; source: E. coli BL21 DE3 pLyS RIL, purified (glutathione sepharose, TEV cleavage, HiTrap SP, Superdex 200); not shown: 6xHis, N-terminal, cleaved; GST, N-terminal, cleaved
T3 sequence: T1 sequence with V290T
Put plainly: SPR; biotinylated AVI-Bora^1–224 or AVI-pBora^1–224 immobilised on a streptavidin chip (Biacore S200), AURKA flowed over; 25 °C; 25 mM HEPES pH 7.5, 150 mM NaCl, 20 mM MgCl2, 1 mM TCEP, 0.01% Brij 35; flow 10 µL/min; mean of n = 2; the paper says the affinities appear under-estimated.

Experiment [4] addresses T4, Full-length human AURKA^T288V (human, UniProt O14965 1-403, T288V).
T4 construct: non-native residues left at the N-terminus after TEV digestion of the 6xHis-GST fusion; Aurora A kinase (AURKA), human, full length, T288V; Lacks T-loop phosphorylation; MW 45935.52 in the SPR methods; also called AURKA T-loop mutant (T288V); source: E. coli BL21 DE3 pLyS RIL, purified (glutathione sepharose, TEV cleavage, HiTrap SP, Superdex 200); not shown: 6xHis, N-terminal, cleaved; GST, …
T4 sequence: T1 sequence
The experiment is described as above.

B1: pBora^(18–120 [S27A T52A]) (domain or fragment)
chain: not shown
modifications: phosphorylated; with ERK 2P and 3P by intact mass, 2 phosphorylations expected (S41, S112) (Supplementary Fig. S6e)
notes: non-native residues left at the N-terminus after TEV digestion; Bora, human, residues 18-120 with S27A and T52A; source: E. coli BL21 DE3 pLysS RIL, purified, then phosphorylated in vitro; not shown: 6xHis, N-terminal, cleaved
Consider B1, for which the IC50 in experiment [1] turned out to be 0.68 µM. In other words, the sub-micromolar range.

B2: AURKA^([T288V R255A]) (enzyme, human)
chain: T1 sequence with R257A
notes: non-native residues left at the N-terminus after TEV digestion of the 6xHis-GST fusion; Aurora A kinase (AURKA), human, full length, T288V R255A; source: E. coli BL21 DE3 pLyS RIL, purified (glutathione sepharose, TEV cleavage, HiTrap SP, Superdex 200); not shown: 6xHis, N-terminal, cleaved; GST, N-terminal, cleaved
B2: the “fold reduced binding against the other AURKA^T288V mutants” value in experiment [2] came out at 3 fold.

B3: biotinylated AVI-tagged Bora^1–224 (domain or fragment)
chain: not shown
modifications: biotin (on the AVI tag, by BirA)
notes: source: E. coli BL21 DE3 pLyS RIL, purified, biotinylated in vitro with 6xHis-BirA and re-purified (Superdex 200); not shown: AVI, N-terminal, kept; 6xHis, N-terminal, cleaved
As for B3, the results for the dissociation constant (Kd) in experiment [3] and in experiment [4] were approximately 52 µM and 11 µM, respectively.

B4: biotinylated AVI-tagged pBora^1–224 (phosphorylated by CyclinA2-Cdk2) (domain or fragment)
chain: not shown
modifications: biotin (on the AVI tag, by BirA); phosphorylated by CyclinA2-Cdk2 (average of eight phosphorylations)
notes: As m9, phosphorylated; MW 27440 calculated from an average of eight phosphorylations; not shown: AVI, N-terminal, kept; 6xHis, N-terminal, cleaved
Turning to B4, the figures for the Kd in experiment [3] and in experiment [4] were approximately 18 µM and 6 µM, respectively.

By IC50 is commonly meant the concentration at which inhibition is half-maximal. Low readings indicate greater potency, high ones weaker potency. For orientation: Kd means the free concentration of one partner at which half of the binding sites on the other are occupied at equilibrium, for simple one-to-one binding.
